Reference: patent publication US20170165338A1

Target: HLA-A*02 (human)
Experiment: UV-exchange b2m ELISA

For SLTEVSLPL […], which peptide exchange yield is on record?
Its peptide exchange yield is 50 to 75%.
